Experimental data: the supplement of paper PMC10065799, “High-throughput profiling of sequence recognition by tyrosine kinases and SH2 domains using bacterial peptide display” (eLife, 2023)

What was measured:
[1] = molecular target: c-Src SH2; assay: SH2 binding enrichment of the phosphorylated peptide, bacterial display (enrichment ratio); higher = better substrate or ligand; peptides without Tyr show the background
[2] = molecular target: Grb2 SH2 (UniProt P62993); assay: as above
[3] = molecular target: SHP2-C SH2; assay: as above
[4] = molecular target: Fyn (UniProt P06241); assay: phosphorylation enrichment, bacterial display (enrichment ratio); higher = better substrate or ligand; peptides without Tyr show the background
[5] = molecular target: MERTK (UniProt Q12866); assay: as above
[6] = molecular target: Jak2 (UniProt O60674); assay: as above
[7] = molecular target: FGFR3 (UniProt P22607); assay: as above
[8] = molecular target: Fes (UniProt P07332); assay: as above
[9] = test system: c-Src; assay: as above
[10] = molecular target: Hck (UniProt P08631); assay: as above
[11] = molecular target: EPHB2 (UniProt P29323); assay: as above
[12] = molecular target: FGFR1 (UniProt P11362); assay: as above
[13] = test system: AncSZ; assay: as above
[14] = test system: c-Abl (mouse); assay: as above
[15] = molecular target: EPHB1 (UniProt P54762); assay: as above
[16] = test system: Fer (mouse); assay: as above
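Throughout, for SH2 binding enrichment of the phosphorylated peptide, bacterial display: peptide library displayed on the E. coli surface as eCPX fusions, selected cells deep-sequenced, score is each peptide's frequency after selection divided by its frequency in the input.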
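Throughout, for phosphorylation enrichment, bacterial display: 11-residue human phosphosite peptides and single-mutation variants displayed on the E. coli surface, counted by deep sequencing, each peptide's frequency after selection divided by its frequency in the unselected input library; frequency after pTyr selection over input frequency; kinase dosed for 20-30% of maximal phosphorylation in three min.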

Jak2, sequence (O60674 whole entry, looked up): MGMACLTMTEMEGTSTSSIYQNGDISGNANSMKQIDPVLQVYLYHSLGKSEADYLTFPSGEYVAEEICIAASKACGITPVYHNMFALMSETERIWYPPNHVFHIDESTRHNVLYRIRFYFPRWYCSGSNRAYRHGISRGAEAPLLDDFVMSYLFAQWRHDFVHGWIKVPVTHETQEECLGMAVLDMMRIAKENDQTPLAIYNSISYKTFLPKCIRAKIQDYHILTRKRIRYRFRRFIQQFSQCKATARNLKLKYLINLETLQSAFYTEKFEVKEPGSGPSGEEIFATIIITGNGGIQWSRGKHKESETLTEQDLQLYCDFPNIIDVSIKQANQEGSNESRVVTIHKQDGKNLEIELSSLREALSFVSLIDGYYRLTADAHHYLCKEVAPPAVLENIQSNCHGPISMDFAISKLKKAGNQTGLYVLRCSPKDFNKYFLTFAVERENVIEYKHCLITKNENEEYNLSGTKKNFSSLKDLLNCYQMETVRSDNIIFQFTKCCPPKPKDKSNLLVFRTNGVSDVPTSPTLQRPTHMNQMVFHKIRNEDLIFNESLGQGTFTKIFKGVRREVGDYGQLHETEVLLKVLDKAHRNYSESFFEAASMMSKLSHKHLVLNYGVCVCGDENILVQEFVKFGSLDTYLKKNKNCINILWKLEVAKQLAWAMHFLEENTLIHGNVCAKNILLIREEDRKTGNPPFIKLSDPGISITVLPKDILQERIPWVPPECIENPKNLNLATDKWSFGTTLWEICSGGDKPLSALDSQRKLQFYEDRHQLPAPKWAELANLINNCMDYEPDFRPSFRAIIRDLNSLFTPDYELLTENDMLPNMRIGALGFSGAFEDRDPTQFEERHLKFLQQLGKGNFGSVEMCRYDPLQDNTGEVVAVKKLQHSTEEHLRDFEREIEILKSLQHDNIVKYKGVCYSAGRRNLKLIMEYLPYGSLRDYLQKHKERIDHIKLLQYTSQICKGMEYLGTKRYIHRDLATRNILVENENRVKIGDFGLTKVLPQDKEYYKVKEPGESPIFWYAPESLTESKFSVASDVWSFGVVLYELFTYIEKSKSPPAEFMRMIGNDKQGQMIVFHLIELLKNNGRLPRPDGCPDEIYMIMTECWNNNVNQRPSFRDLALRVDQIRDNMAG
FGFR1, sequence (P11362 whole entry, looked up): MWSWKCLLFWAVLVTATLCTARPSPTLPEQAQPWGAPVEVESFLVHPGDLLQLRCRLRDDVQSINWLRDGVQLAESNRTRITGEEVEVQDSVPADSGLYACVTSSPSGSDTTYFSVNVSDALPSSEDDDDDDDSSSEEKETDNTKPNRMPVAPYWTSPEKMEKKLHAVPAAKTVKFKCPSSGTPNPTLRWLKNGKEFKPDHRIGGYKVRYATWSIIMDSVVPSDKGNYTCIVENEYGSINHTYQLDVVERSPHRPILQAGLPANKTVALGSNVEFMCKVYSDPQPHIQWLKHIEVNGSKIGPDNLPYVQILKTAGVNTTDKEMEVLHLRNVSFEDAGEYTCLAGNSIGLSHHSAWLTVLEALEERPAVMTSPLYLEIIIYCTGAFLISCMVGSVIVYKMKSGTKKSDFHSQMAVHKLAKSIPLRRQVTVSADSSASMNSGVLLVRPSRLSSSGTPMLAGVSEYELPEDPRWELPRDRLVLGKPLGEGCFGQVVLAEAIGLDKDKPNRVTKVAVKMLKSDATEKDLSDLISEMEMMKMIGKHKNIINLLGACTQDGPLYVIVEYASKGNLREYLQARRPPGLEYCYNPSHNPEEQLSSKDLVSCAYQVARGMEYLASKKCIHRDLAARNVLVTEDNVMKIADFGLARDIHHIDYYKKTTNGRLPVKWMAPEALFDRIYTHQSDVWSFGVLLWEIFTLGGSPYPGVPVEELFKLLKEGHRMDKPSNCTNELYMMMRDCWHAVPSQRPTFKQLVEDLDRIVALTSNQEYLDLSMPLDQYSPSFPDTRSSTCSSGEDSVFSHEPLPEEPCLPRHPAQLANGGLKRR
Hck, sequence (P08631 whole entry, looked up): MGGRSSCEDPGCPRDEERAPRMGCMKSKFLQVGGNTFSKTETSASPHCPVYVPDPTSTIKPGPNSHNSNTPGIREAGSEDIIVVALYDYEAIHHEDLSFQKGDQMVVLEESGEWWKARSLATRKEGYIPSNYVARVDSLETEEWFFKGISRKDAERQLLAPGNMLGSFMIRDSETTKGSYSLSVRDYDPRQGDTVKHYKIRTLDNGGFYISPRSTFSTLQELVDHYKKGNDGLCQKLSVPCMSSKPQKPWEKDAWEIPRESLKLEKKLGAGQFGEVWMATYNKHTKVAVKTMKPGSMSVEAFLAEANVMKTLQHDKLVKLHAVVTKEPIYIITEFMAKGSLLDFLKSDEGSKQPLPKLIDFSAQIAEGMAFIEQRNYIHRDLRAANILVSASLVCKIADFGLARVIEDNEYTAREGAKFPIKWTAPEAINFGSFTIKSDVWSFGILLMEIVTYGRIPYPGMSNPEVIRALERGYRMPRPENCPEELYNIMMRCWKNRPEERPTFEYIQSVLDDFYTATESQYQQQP
Fes, sequence (P07332 whole entry, looked up): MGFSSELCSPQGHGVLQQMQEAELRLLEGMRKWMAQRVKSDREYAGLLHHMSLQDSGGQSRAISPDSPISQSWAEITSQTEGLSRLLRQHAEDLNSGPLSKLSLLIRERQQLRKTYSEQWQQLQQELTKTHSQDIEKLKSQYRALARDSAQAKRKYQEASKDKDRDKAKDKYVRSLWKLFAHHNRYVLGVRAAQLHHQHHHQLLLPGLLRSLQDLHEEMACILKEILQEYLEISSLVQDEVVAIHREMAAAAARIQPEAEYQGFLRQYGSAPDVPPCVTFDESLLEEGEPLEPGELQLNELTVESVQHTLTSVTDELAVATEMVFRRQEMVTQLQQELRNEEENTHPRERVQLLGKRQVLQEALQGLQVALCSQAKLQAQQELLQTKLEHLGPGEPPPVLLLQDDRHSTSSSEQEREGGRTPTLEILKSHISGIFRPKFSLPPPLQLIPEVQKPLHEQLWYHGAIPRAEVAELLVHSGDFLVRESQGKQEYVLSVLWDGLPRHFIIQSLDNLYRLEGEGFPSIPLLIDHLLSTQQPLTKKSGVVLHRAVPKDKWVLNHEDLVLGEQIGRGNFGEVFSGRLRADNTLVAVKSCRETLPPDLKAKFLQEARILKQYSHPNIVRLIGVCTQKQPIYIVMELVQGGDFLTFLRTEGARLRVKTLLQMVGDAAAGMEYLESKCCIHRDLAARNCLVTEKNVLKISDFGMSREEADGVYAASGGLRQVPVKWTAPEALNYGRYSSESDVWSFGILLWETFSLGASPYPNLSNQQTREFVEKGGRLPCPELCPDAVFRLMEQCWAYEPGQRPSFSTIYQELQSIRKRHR
Fyn, sequence (P06241 whole entry, looked up): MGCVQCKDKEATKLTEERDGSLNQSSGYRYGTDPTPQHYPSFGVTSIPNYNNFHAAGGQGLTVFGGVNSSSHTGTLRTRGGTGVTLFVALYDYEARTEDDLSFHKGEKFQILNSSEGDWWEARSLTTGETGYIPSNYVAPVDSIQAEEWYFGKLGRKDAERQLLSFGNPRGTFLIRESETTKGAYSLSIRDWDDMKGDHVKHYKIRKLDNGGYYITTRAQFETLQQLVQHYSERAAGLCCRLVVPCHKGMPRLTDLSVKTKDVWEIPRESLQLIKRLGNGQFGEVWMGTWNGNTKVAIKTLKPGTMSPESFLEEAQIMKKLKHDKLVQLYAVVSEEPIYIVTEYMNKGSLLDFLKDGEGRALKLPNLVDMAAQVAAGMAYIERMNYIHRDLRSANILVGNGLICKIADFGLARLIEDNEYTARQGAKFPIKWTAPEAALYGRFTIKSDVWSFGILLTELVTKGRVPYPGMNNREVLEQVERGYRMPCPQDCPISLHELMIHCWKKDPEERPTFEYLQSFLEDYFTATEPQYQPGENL
EPHB2, sequence (P29323 whole entry, looked up): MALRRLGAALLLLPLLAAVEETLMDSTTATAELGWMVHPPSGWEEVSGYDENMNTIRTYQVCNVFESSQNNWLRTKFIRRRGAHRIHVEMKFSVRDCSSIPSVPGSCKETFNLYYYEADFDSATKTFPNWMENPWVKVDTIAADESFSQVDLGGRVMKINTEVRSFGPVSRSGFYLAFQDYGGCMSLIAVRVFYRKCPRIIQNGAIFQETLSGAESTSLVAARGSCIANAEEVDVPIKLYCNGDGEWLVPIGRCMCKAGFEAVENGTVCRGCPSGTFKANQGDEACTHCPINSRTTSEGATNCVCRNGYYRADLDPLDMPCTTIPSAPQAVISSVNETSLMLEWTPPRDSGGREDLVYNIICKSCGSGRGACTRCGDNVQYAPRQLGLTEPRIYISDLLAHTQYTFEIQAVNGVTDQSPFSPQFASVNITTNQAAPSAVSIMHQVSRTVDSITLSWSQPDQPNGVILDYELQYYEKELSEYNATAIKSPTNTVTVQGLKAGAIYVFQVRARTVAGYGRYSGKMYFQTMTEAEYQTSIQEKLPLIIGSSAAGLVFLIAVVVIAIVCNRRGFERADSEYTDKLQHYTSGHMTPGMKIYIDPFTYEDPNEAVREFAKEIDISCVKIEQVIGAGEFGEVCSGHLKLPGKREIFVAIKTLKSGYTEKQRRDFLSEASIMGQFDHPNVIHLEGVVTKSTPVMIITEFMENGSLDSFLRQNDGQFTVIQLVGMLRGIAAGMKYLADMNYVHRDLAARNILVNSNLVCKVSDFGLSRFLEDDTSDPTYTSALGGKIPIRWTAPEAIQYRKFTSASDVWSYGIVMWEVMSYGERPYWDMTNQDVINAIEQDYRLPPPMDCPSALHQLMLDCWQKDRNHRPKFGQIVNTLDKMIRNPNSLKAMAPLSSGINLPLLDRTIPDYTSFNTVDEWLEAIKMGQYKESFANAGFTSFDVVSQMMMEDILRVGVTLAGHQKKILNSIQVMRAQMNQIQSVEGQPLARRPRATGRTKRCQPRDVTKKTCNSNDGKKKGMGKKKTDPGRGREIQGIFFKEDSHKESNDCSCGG

Row | SH2 binding enrichment [1] | SH2 binding enrichment [2] | SH2 binding enrichment [3] | Sequence | phosphorylation enrichment [4] | phosphorylation enrichment [5] | phosphorylation enrichment [6] | phosphorylation enrichment [7] | phosphorylation enrichment [8] | phosphorylation enrichment [9] | phosphorylation enrichment [10] | phosphorylation enrichment [11] | phosphorylation enrichment [12] | phosphorylation enrichment [13] | phosphorylation enrichment [14] | phosphorylation enrichment [15] | phosphorylation enrichment [16]
1 | 0.657 | 0.705 | 0.634 | EFFDGYWGFSV [ITGA2B_Y265_YF] | 3.98 | 1.14 | 8.01 | 4.7 | 1.15 | 5.54 | 3.31 | 0.58 | 6.3 | 1.43 | 1.53 | 0.633 | 0.54
2 | 0.452 | 0.818 | 0.608 | AHAGKYGAEAL [HBA1_Y25_E24K] | 0.423 | 0.347 | 0.544 | 0.42 | 0.796 | 0.387 | 0.368 | 0.338 | 0.4 | 0.677 | 0.451 | 0.453 | 0.342
3 | 0.488 | 1.03 | 0.529 | DRLASYLDKMR [KRT17_Y98_V102M] | 0.751 | 0.45 | 0.667 | 0.513 | 0.912 | 0.459 | 0.473 | 0.467 | 0.483 | 0.697 | 0.606 | 0.376 | 0.436
4 | 0.45 | 0.623 | 0.735 | GGQVFYNSEFG [FLT4_Y1333_YF] | 0.479 | 0.546 | 1.25 | 0.766 | 1.11 | 0.838 | 0.532 | 0.617 | 0.551 | 1.09 | 0.884 | 0.619 | 0.53
5 | 0.931 | 1.38 | 0.762 | RKKEEYKMALY [F8_Y1990] | 0.46 | 0.462 | 0.477 | 0.33 | 0.708 | 0.546 | 1.05 | 0.387 | 0.58 | 0.492 | 0.632 | 0.337 | 0.289
6 | 0.472 | 0.823 | 0.608 | DVVKDYAFVHM [RBM14_Y114] | 0.419 | 0.574 | 0.661 | 2.45 | 0.933 | 0.466 | 0.435 | 5.38 | 3.87 | 0.929 | 0.659 | 7.47 | 2.58
7 | 0.574 | 0.991 | 1.19 | DPLLTYLFPPK [LMNA_Y481_R482L] | 1.8 | 0.772 | 2.79 | 2.62 | 1.08 | 3.12 | 0.87 | 0.781 | 4.35 | 2.2 | 0.836 | 0.992 | 0.481
8 | 2.08 | 1.03 | 0.988 | SMGHRYIEVFK [HNRNPF_Y82] | 0.354 | 0.361 | 1.05 | 0.483 | 1 | 0.445 | 0.407 | 0.38 | 0.408 | 0.744 | 0.757 | 0.398 | 0.438
9 | 0.56 | 0.849 | 0.702 | FSTDFYRVGGH [NTRK2_Y707_YF] | 0.493 | 0.429 | 0.704 | 0.569 | 0.813 | 0.478 | 0.396 | 0.405 | 0.459 | 0.722 | 0.756 | 0.637 | 0.471
10 | 1.26 | 0.911 | 3.49 | LEAVSYSSPFA [RNLS_Y190_R193P_YF] | 0.791 | 0.658 | 0.952 | 0.661 | 1.06 | 0.652 | 0.615 | 0.908 | 1.12 | 1.23 | 2.62 | 0.736 | 0.396
11 | 1.11 | 1.28 | 0.794 | RSAGKYDVFFI [MECP2_Y120_L124F_YF] | 0.678 | 0.722 | 1.38 | 1.53 | 1.09 | 0.751 | 0.642 | 0.773 | 1.02 | 1.03 | 0.796 | 0.651 | 0.519
12 | 0.501 | 0.814 | 0.499 | FEPDAYFDLDQ [ELP5_Y302_D303Y_YF] | 0.598 | 0.477 | 1.82 | 4.43 | 1.34 | 0.584 | 0.622 | 0.656 | 5.04 | 1.52 | 0.91 | 0.678 | 0.648
13 | 0.543 | 0.902 | 0.679 | GTGTAYLCGVK [ALPL_Y117_A114G] | 0.435 | 0.379 | 0.675 | 0.489 | 0.754 | 0.348 | 0.395 | 0.412 | 0.446 | 0.694 | 0.685 | 0.551 | 0.511
14 | 0.559 | 1 | 0.888 | RFLRGYRQDAF [HLA-A_Y137_YF] | 0.489 | 0.799 | 0.498 | 0.677 | 1.01 | 0.413 | 0.802 | 0.47 | 0.569 | 0.644 | 0.708 | 0.742 | 0.658
15 | 1.7 | 1.43 | 1.23 | RWHEGYRQTPR [CD44_Y412_K417R] | 0.299 | 0.539 | 0.539 | 0.663 | 0.851 | 0.35 | 0.345 | 0.383 | 0.433 | 0.645 | 0.65 | 0.461 | 0.613
16 | 0.467 | 0.779 | 0.846 | WASSSYRETPS [SORBS1_Y79_R74W] | 0.402 | 0.39 | 0.45 | 0.444 | 0.57 | 0.362 | 0.409 | 0.353 | 0.438 | 0.57 | 0.391 | 0.411 | 0.389

Row | SH2 binding enrichment [1] | SH2 binding enrichment [2] | SH2 binding enrichment [3] | Sequence | phosphorylation enrichment [4] | phosphorylation enrichment [5] | phosphorylation enrichment [6] | phosphorylation enrichment [7] | phosphorylation enrichment [8] | phosphorylation enrichment [9] | phosphorylation enrichment [10] | phosphorylation enrichment [11] | phosphorylation enrichment [12] | phosphorylation enrichment [13] | phosphorylation enrichment [14] | phosphorylation enrichment [15] | phosphorylation enrichment [16]
17 | 3.29 | 20.8 | 1.65 | DTKPVYQNLRQ [BOD1_Y82_A81V] | 1.07 | 0.533 | 0.621 | 0.456 | 0.752 | 1.07 | 1.29 | 0.44 | 0.511 | 0.596 | 0.708 | 0.549 | 0.507
18 | 1.73 | 1.14 | 1.25 | TPSGNYVACGG [GNB1_Y111_A106T] | 0.447 | 0.516 | 0.602 | 0.436 | 0.8 | 0.783 | 0.488 | 0.704 | 0.555 | 0.614 | 0.677 | 0.771 | 0.415
19 | 0.686 | 0.857 | 0.751 | PAIERYVVVCK [RHO_Y136_L131P] | 0.612 | 0.374 | 1.08 | 0.851 | 1.41 | 0.474 | 0.551 | 0.846 | 0.505 | 1.08 | 0.928 | 0.896 | 0.473
20 | 0.483 | 0.774 | 0.69 | AEEEIYGEFEA [Src_opt_1995] | 1.26 | 0.58 | 1.29 | 1 | 1.49 | 1.14 | 1.12 | 0.75 | 0.694 | 1.51 | 0.97 | 0.808 | 0.923
21 | 1.18 | 1.19 | 1.51 | KIIRWYVSSEG [ANK2_Y3907_R3906W] | 0.51 | 0.415 | 1.2 | 0.784 | 1.34 | 0.455 | 0.498 | 0.679 | 0.55 | 1.31 | 0.747 | 0.69 | 0.543
22 | 0.528 | 0.821 | 0.83 | EILLSYPRTGF [TGM1_Y365_L366P_YF] | 0.541 | 0.411 | 0.872 | 0.555 | 0.935 | 0.356 | 0.534 | 0.533 | 0.488 | 0.695 | 0.515 | 0.562 | 0.397
23 | 0.423 | 1.09 | 0.655 | RGDTVYTVNRM [KBTBD13_Y404] | 5.2 | 0.808 | 0.834 | 1.21 | 1.35 | 4.93 | 1.61 | 0.441 | 0.824 | 1.05 | 1.06 | 0.825 | 0.83
24 | 1.66 | 2.61 | 1.82 | RLLVVYPWTQG [HBG2_Y36_R41G] | 0.499 | 0.27 | 0.987 | 0.58 | 0.932 | 0.305 | 0.416 | 0.378 | 0.603 | 0.894 | 0.593 | 0.542 | 0.289
25 | 0.787 | 0.835 | 0.728 | LFIDSYEKDVA [PGM1_Y521_YF] | 1.41 | 0.848 | 1.22 | 1.48 | 2.05 | 0.694 | 0.816 | 0.755 | 0.855 | 2.09 | 1.36 | 1.34 | 0.767
26 | 29.2 | 0.927 | 1.18 | LGPDGYSTVDR [ARVCF_Y901] | 0.679 | 0.553 | 1.01 | 0.81 | 1.31 | 0.395 | 0.405 | 0.594 | 0.617 | 2.11 | 0.909 | 0.318 | 0.709
27 | 0.435 | 1 | 0.353 | RGRKVYLEDGF [PRIM2_Y201] | 0.698 | 1.15 | 0.808 | 0.851 | 0.911 | 1.11 | 0.852 | 0.649 | 0.749 | 1.04 | 1.29 | 0.662 | 1.13
28 | 0.43 | 0.831 | 0.749 | AKYLGYPPPEI [KDR_Y357] | 0.321 | 0.378 | 0.594 | 0.556 | 0.849 | 0.385 | 0.512 | 0.535 | 0.395 | 0.543 | 0.538 | 0.374 | 0.398
29 | 1.15 | 1.66 | 1.28 | LVIIKYLPEWT [PSEN1_Y240_F237I] | 1.75 | 1.03 | 2.79 | 2.62 | 2.86 | 0.818 | 1.21 | 2.39 | 1.38 | 3.39 | 1.5 | 2.33 | 0.911
30 | 0.465 | 0.651 | 0.688 | SKKSTYRALLD [GANC_Y43_Q44R] | 0.432 | 0.421 | 0.533 | 0.348 | 0.655 | 0.385 | 0.406 | 0.315 | 0.347 | 0.471 | 0.447 | 0.368 | 0.358
31 | 0.501 | 0.807 | 0.584 | GEEIKDMLWLS [OTC_Y55_Y55D] | 0.475 | 0.425 | 0.822 | 0.566 | 1 | 0.361 | 0.446 | 0.462 | 0.475 | 0.913 | 0.672 | 0.448 | 0.428
32 | 0.474 | 0.665 | 0.655 | GGQVFHNSEYG [FLT4_Y1333_Y1333H] | 0.362 | 0.314 | 0.67 | 0.535 | 0.712 | 0.425 | 0.377 | 0.431 | 0.386 | 0.581 | 0.857 | 0.438 | 0.349

Row | Sequence | SH2 binding enrichment [1] | SH2 binding enrichment [2] | SH2 binding enrichment [3] | phosphorylation enrichment [4] | phosphorylation enrichment [5] | phosphorylation enrichment [6] | phosphorylation enrichment [7] | phosphorylation enrichment [8] | phosphorylation enrichment [9] | phosphorylation enrichment [10] | phosphorylation enrichment [11] | phosphorylation enrichment [12] | phosphorylation enrichment [13] | phosphorylation enrichment [14] | phosphorylation enrichment [15] | phosphorylation enrichment [16]
33 | MTRDIYETDYY [INSR_Y1185] | 0.744 | 0.716 | 0.6 | 1.63 | 0.746 | 1.02 | 1.93 | 1.13 | 2.42 | 1.39 | 1.34 | 1.89 | 2.66 | 0.712 | 1.39 | 0.831
